The values below come from paper PMC6666309.

The term Kd denotes the free concentration of one partner at which half of the binding sites on the other are occupied at equilibrium, for simple one-to-one binding. High values mean a looser complex, low ones a tighter complex.

For experiment [1], the target named is pro-cathepsin D (UniProt P07339).
The target is the same in experiment [2]. In words: MST.
Experiment [3] shares this target. This is another data set of the same source.

pro-cathepsin D, sequence (P07339 21-412): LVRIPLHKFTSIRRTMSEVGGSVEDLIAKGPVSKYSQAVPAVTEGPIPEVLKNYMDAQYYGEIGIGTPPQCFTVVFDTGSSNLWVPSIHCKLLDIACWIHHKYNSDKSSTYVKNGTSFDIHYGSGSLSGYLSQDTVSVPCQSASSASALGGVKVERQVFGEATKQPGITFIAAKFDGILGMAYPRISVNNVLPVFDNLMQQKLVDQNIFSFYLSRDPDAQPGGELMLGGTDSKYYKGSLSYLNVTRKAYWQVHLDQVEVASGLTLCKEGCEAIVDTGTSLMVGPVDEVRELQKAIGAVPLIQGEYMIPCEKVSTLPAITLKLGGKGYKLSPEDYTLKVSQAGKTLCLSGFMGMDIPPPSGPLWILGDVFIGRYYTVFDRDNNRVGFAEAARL

In the experiment with pro-cathepsin D [1], “multi-granulin domain peptide CDE (domain or fragment)” came in with a DSF - ΔTm of proCTSD with peptide CDE, pH 7.4 of -2.78 °C and a Normalized Vmax of CTSD activity (20 nM proCTSD, 65 nM peptide CDE, pH 3.5) of 1.84. The Kd with pro-cathepsin D [2] was 130 nM. In the experiment with pro-cathepsin D [3], the DSF - Tm reduction of proCTSD with CDE at a 1:1 molar ratio was 2.75 °C.

Take “multi-granulin domain peptide BAC (domain or fragment)”: in the experiment with pro-cathepsin D [1], the DSF - ΔTm of proCTSD (1 μM proCTSD with 2 μM peptide BAC, pH 7.4) is -3.38 °C and the Normalized Vmax of CTSD activity (20 nM proCTSD, 65 nM peptide BAC, pH 3.5) came out at 1.89. In addition, the Kd with pro-cathepsin D [2] was found to be 2800 nM.
